Where a chain is given by its changes, count along the chain named.
How the values were obtained:
Test in all cases: EMSA
Conditions in all cases: 10 mM Tris pH 8, 150 mM KCl, 500 nM EDTA, 0.1% Triton X-100, 12.5% glycerol, 1 mM DTT, 1 ug poly(dI-dC), 4 C, 30 min
[1] = biological target: T1, HetR S179A S179A (Nostoc PCC 7120) (UniProt P27709)
T1 sequence: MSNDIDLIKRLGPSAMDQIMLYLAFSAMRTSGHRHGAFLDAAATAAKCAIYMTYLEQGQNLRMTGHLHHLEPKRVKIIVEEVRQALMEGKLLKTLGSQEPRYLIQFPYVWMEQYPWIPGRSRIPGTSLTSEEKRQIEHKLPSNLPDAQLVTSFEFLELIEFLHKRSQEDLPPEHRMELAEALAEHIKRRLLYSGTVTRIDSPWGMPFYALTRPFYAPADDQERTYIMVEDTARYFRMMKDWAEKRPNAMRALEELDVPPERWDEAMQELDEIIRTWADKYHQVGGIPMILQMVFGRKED

[2] = biological target: T2, HetR S130D S130D (Nostoc PCC 7120) (UniProt P27709)
T2 sequence: T1 sequence with S130D, A179S

[3] = biological target: T3, HetR S130A S130A (Nostoc PCC 7120) (UniProt P27709)
T3 sequence: T1 sequence with S130A, A179S

[4] = biological target: T4, HetR S127A S127A (Nostoc PCC 7120) (UniProt P27709)
T4 sequence: T1 sequence with S127A, A179S

TGAGTTATACGCTATATCAATGGGGATTTTGAGCATTTTCTACTAGGTAATGAGGGGTTAGACCCCTCGCCTACTGTGCATTTGAGACTTTAAACCTACTAAGAGAATTTACCACTAAAT (double strand) [hetP promoter]
binding [1]: no binding
binding [2]: binds
binding [3]: binds
binding [4]: binds

— PMC6985446
